Data on 25 molecules can be found in patent publication US20160159924A1 (Novo Nordisk, published 2016).

The target of test [1] is T1, recombinant human sc-uPA (human, UniProt P00749 21-431).
T1 construct: 411 amino acid single-chain zymogen expressed in HEK293; the 20-residue signal peptide is not present in the mature protein; also called human single-chain uPA; pro-uPA
The experiment in a line: SPR, mAb immobilised. How it is done:
The binding affinity to recombinant human sc-uPA protein (SEQ ID NO:1) was measured by surface plasmon resonance (SPR).
(§1) The experiments were performed on a Biacore™ instrument (GE Healthcare) and analysed with the BIAcore 4000 Evaluation Software. Anti-human uPA mAb variants were directly immobilized at 150-600 RU on flow cells of a CM5 sensor chip (GE Healthcare; cat. # BR-1000-12) via amine coupling, respectively. Recombinant human sc-uPA was diluted in HBS-N (GE Healthcare Cat BR-1006-70) with 1% BSA buffer with a dilution factor 3× ranging 1000-0.13 nM. Recombinant human sc-uPA was injected for 60 s, followed by a 600 s dissociation phase. Binding curves were measured at 25° C. with a flow rate of 30 μL/min. Regeneration of the chip surface was performed with pH1.5 Glycine for 25 s at 30 μl/min. Determination of the kinetic parameters was performed by fitting with a 1:1 binding model. Binding affinities were calculated and are stated in Table 17 below.
For orientation: In SPR one partner is held on a chip, and binding of the other changes the refractive index at the surface.

The target in test [2] is T1, recombinant human sc-uPA. The test is described as follows: SPR (Biacore), mAb immobilised, sc-uPA as analyte, 25 C. How it is done:
(§2) In order to compare with murine mAb, the binding profile to recombinant human sc-uPA protein (SEQ ID NO: 1) and cynomolgus sc-uPA (SEQ ID NO: 3) was measured by surface plasmon resonance (SPR).
as §1, with “Software. […]” for “Software. Anti-human uPA mAb variants were directly immobilized at 150-600 RU on flow cells of a CM5 sensor chip (GE Healthcare; cat. # BR-1000-12) via amine coupling, respectively.”, “sc-uPA and cynomolgus sc-uPA proteins were” for “sc-uPA was”, “model. Kinetic parameters” for “model. Binding affinities”, “Table 14” for “Table 17”

The target of test [3] is T2, recombinant cynomolgus sc-uPA (cynomolgus monkey, UniProt P16227 29-433 (Papio cynocephalus entry)).
T2 construct: The exact signal peptide is said not to be established; also called cyno pro-uPA; cyno pro-uPA-6xHis
The description is as above. As for the experimental part:
as §2
as §1, with “Software. […]” for “Software. Anti-human uPA mAb variants were directly immobilized at 150-600 RU on flow cells of a CM5 sensor chip (GE Healthcare; cat. # BR-1000-12) via amine coupling, respectively.”, “sc-uPA and cynomolgus sc-uPA proteins were” for “sc-uPA was”, “model. Kinetic parameters” for “model. Binding affinities”, “Table 14” for “Table 17”

For test [4], the target named is T1, recombinant human sc-uPA. The experiment in a line: SPR, mAb immobilised. As for the experimental part:
The binding affinity to recombinant human sc-uPA protein (SEQ ID […]) was measured by surface plasmon resonance (SPR).
as §1, with “20” for “17”
This is another data set of the same source.

Residue numbers refer to the chain shown, from its start.

B1: rec0266-0000-0010 (antibody, mouse IgG1, V domains shown)
VH: DVKLVESGGGLVKPGGSLKLSCVASGFTFSSYTMSWVRQTPEKRLEWVATISGGGSHIYYADSVKGRFTISRDNAKNTLYLQMSSLKSEDTAIYYCTRDGRDGSWFAYWGQGTLVTVSA
VL: DIVMTQSPATLSVTPGDRVSLSCRTSQSIGDYLHWYQQKSHESPRLLIKYVSQSISGIPSRFSGSGSGSDFTLSINSVESEDVGVYYCQNSHSFPLTFGSGTKLELKR
notes: also called mAb rec0266-0000-0010
In general, Kd refers to the concentration at which binding is half-saturated. The koff is the rate constant with which the complex falls apart. As usually defined, the kon is the second-order rate constant of association. Consider B1, for which the Kd in the test with recombinant human sc-uPA [1] stood at 0.47 nM; with recombinant human sc-uPA [2], 0.944 nM; in test [3] it was 0.0526 nM; with recombinant human sc-uPA [4], 0.47 nM. The koff with recombinant human sc-uPA [2] turned out to be 0.00053 s⁻¹; in test [3], 0.000104 s⁻¹. For the same molecule, the kon with recombinant human sc-uPA [2] was found to be 561000 M⁻¹ s⁻¹; in test [3] it was 1.98e+06 M⁻¹ s⁻¹.

B2: rec0266-0000-0010-VL_S91K (antibody, mouse IgG1, name in Kabat numbering, V domains shown)
VH: B1 VH
VL: B1 VL with S91K
In the case of B2, in the test with recombinant human sc-uPA [4], the Kd came to 3.2 nM.

B3: rec0266-0000-0010-VL_S91A (antibody, mouse IgG1, name in Kabat numbering, V domains shown)
VH: B1 VH
VL: B1 VL with S91A
On to B3, for which, in the test with recombinant human sc-uPA [4], the Kd turned out to be 1.3 nM.

B4: rec0266-0000-0010-VL_N90I (antibody, mouse IgG1, name in Kabat numbering, V domains shown)
VH: B1 VH
VL: B1 VL with N90I
As for B4, the Kd in the test with recombinant human sc-uPA [4] is 0.62 nM.

B5: rec0266-0000-0010-VL_S91D (antibody, mouse IgG1, name in Kabat numbering, V domains shown)
VH: B1 VH
VL: B1 VL with S91D
Regarding B5, in the test with recombinant human sc-uPA [4], the Kd came out at 2.1 nM.

B6: rec0266-0000-0010-VL_N90T (antibody, mouse IgG1, name in Kabat numbering, V domains shown)
VH: B1 VH
VL: B1 VL with N90T
For B6, the Kd with recombinant human sc-uPA [4] was 0.48 nM.

B7: rec0266-0000-0010-VL_S91T (antibody, mouse IgG1, name in Kabat numbering, V domains shown)
VH: B1 VH
VL: B1 VL with S91T
For the molecule B7, in the test with recombinant human sc-uPA [4], the Kd worked out at 0.88 nM.

B8: rec0266-0000-0010-VL_S91V (antibody, mouse IgG1, name in Kabat numbering, V domains shown)
VH: B1 VH
VL: B1 VL with S91V
Take B8: the Kd in the test with recombinant human sc-uPA [4] was determined as 12 nM.

B9: rec0266-0000-0010-VL_S91R (antibody, mouse IgG1, name in Kabat numbering, V domains shown)
VH: B1 VH
VL: B1 VL with S91R
On to B9, for which the Kd in the test with recombinant human sc-uPA [4] was 3.1 nM.

B10: rec0266-0000-0010-VL_N90P (antibody, mouse IgG1, name in Kabat numbering, V domains shown)
VH: B1 VH
VL: B1 VL with N90P
B10: in the test with recombinant human sc-uPA [4], the Kd was found to be 0.62 nM.

B11: rec0266-0000-0010-VL_S91E (antibody, mouse IgG1, name in Kabat numbering, V domains shown)
VH: B1 VH
VL: B1 VL with S91E
For B11, the Kd with recombinant human sc-uPA [4] stood at 10 nM.

B12: rec0266-0000-0010-VL_N90L (antibody, mouse IgG1, name in Kabat numbering, V domains shown)
VH: B1 VH
VL: B1 VL with N90L
With B12, the Kd in the test with recombinant human sc-uPA [4] came out at 0.61 nM.

B13: rec0266-0000-0010-VL_S91Q (antibody, mouse IgG1, name in Kabat numbering, V domains shown)
VH: B1 VH
VL: B1 VL with S91Q
Take B13: the Kd with recombinant human sc-uPA [4] amounted to 2.2 nM.

B14: rec0266-0000-0010-VL_N90V (antibody, mouse IgG1, name in Kabat numbering, V domains shown)
VH: B1 VH
VL: B1 VL with N90V
Consider B14, for which the Kd with recombinant human sc-uPA [4] is 0.58 nM.

B15: rec0266-0000-0010-VL_S91F (antibody, mouse IgG1, name in Kabat numbering, V domains shown)
VH: B1 VH
VL: B1 VL with S91F
B15: the Kd in the test with recombinant human sc-uPA [4] is 11 nM.

B16: rec0266-0000-0010-VL_N90R (antibody, mouse IgG1, name in Kabat numbering, V domains shown)
VH: B1 VH
VL: B1 VL with N90R
Regarding B16, the Kd with recombinant human sc-uPA [4] is 1.9 nM.

B17: rec0266-0000-0010-VL_N90Q (antibody, mouse IgG1, name in Kabat numbering, V domains shown)
VH: B1 VH
VL: B1 VL with N90Q
Turning to B17, the Kd in the test with recombinant human sc-uPA [4] was 0.32 nM.

B18: rec0266-0000-0010-VL_N90K (antibody, mouse IgG1, name in Kabat numbering, V domains shown)
VH: B1 VH
VL: B1 VL with N90K
Regarding B18, the Kd with recombinant human sc-uPA [4] is 1.1 nM.

B19: rec0266-0000-0010-VL_S91H (antibody, mouse IgG1, name in Kabat numbering, V domains shown)
VH: B1 VH
VL: B1 VL with S91H
For the molecule B19, in the test with recombinant human sc-uPA [4], the Kd was found to be 5.3 nM.

B20: rec0266-0000-0010-VL_S91Y (antibody, mouse IgG1, name in Kabat numbering, V domains shown)
VH: B1 VH
VL: B1 VL with S91Y
As for B20, the Kd with recombinant human sc-uPA [4] is 3.6 nM.

B21: rec0266-0000-0010-VL_N90S (antibody, mouse IgG1, name in Kabat numbering, V domains shown)
VH: B1 VH
VL: B1 VL with N90S
In the case of B21, in the test with recombinant human sc-uPA [4], the Kd turned out to be 0.38 nM.

B22: rec0266-0000-0010-VL_S91L (antibody, mouse IgG1, name in Kabat numbering, V domains shown)
VH: B1 VH
VL: B1 VL with S91L
For the molecule B22, the Kd with recombinant human sc-uPA [4] stood at 5.7 nM.

B23: rec0266-0000-0010-VL_S91P (antibody, mouse IgG1, name in Kabat numbering, V domains shown)
VH: B1 VH
VL: B1 VL with S91P
As for B23, the Kd in the test with recombinant human sc-uPA [4] is 2 nM.

B24: rec0266-0000-0010-VL_S91I (antibody, mouse IgG1, name in Kabat numbering, V domains shown)
VH: B1 VH
VL: B1 VL with S91I
For the molecule B24, the Kd with recombinant human sc-uPA [4] came out at 2.9 nM.

B25: rec0266-0000-0010-VL_N90Y (antibody, mouse IgG1, name in Kabat numbering, V domains shown)
VH: B1 VH
VL: B1 VL with N90Y
Consider B25, for which, in the test with recombinant human sc-uPA [4], the Kd was 0.8 nM.
